One data set concerns the target T1, Bl_Man38B (Bifidobacterium longum, UniProt Q8G4Q0).
T1 sequence (Q8G4Q0 1-1046): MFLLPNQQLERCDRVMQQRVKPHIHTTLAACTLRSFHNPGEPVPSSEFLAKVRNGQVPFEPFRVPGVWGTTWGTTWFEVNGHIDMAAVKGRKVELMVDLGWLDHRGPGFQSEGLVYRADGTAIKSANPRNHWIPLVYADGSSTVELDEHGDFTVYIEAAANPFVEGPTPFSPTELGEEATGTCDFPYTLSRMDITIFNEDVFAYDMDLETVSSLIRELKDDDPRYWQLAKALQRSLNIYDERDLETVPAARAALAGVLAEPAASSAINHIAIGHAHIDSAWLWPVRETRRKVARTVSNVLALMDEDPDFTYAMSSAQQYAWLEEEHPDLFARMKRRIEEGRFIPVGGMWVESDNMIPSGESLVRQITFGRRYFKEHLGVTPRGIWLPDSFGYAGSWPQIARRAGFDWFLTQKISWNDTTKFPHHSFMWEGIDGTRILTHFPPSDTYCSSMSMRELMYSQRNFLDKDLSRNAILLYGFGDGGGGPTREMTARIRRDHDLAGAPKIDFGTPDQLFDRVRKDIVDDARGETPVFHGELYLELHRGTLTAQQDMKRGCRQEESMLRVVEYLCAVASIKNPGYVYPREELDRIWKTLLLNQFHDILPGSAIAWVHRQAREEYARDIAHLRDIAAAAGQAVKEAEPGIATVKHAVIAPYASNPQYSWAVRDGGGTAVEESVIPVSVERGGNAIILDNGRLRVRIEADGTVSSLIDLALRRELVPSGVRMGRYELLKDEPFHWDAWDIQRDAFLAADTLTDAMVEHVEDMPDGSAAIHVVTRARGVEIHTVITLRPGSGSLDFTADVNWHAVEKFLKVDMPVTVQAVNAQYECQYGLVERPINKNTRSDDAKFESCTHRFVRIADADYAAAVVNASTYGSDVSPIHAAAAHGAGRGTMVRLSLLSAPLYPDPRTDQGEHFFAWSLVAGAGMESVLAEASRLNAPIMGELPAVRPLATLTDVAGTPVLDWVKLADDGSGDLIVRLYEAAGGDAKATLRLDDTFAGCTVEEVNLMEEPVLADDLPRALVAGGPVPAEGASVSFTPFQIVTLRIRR
Kind of data set: LC-MS hydrolysis kinetics. It is filed as biochemical. The conditions noted are these: pH 5.5, 37 °C, 0.1 mM CoCl2.

The data set “cryo-EM structure” concerns the molecule itself. In words: cryo-EM structure.

This note sets out measurements from paper PMC10367113 (Nature chemical biology, 2022).

As for `OC[C@H]1O[C@H](O[C@H]2[C@H](O)[C@@H](CO)OC(O)[C@H]2O)[C@@H](O)[C@@H](O)[C@@H]1O` (stereo partly drawn) [α-1,3-mannobiose], the Km entry at Bl_Man38B is “Bl_Man38B was efficient over the three disaccharides”.

B1: Bl_Man38B, GH38 α-mannosidase from Bifidobacterium longum NCC2705 (enzyme)
chain: MFLLPNQQLERCDRVMQQRVKPHIHTTLAACTLRSFHNPGEPVPSSEFLAKVRNGQVPFEPFRVPGVWGTTWGTTWFEVNGHIDMAAVKGRKVELMVDLGWLDHRGPGFQSEGLVYRADGTAIKSANPRNHWIPLVYADGSSTVELDEHGDFTVYIEAAANPFVEGPTPFSPTELGEEATGTCDFPYTLSRMDITIFNEDVFAYDMDLETVSSLIRELKDDDPRYWQLAKALQRSLNIYDERDLETVPAARAALAGVLAEPAASSAINHIAIGHAHIDSAWLWPVRETRRKVARTVSNVLALMDEDPDFTYAMSSAQQYAWLEEEHPDLFARMKRRIEEGRFIPVGGMWVESDNMIPSGESLVRQITFGRRYFKEHLGVTPRGIWLPDSFGYAGSWPQIARRAGFDWFLTQKISWNDTTKFPHHSFMWEGIDGTRILTHFPPSDTYCSSMSMRELMYSQRNFLDKDLSRNAILLYGFGDGGGGPTREMTARIRRDHDLAGAPKIDFGTPDQLFDRVRKDIVDDARGETPVFHGELYLELHRGTLTAQQDMKRGCRQEESMLRVVEYLCAVASIKNPGYVYPREELDRIWKTLLLNQFHDILPGSAIAWVHRQAREEYARDIAHLRDIAAAAGQAVKEAEPGIATVKHAVIAPYASNPQYSWAVRDGGGTAVEESVIPVSVERGGNAIILDNGRLRVRIEADGTVSSLIDLALRRELVPSGVRMGRYELLKDEPFHWDAWDIQRDAFLAADTLTDAMVEHVEDMPDGSAAIHVVTRARGVEIHTVITLRPGSGSLDFTADVNWHAVEKFLKVDMPVTVQAVNAQYECQYGLVERPINKNTRSDDAKFESCTHRFVRIADADYAAAVVNASTYGSDVSPIHAAAAHGAGRGTMVRLSLLSAPLYPDPRTDQGEHFFAWSLVAGAGMESVLAEASRLNAPIMGELPAVRPLATLTDVAGTPVLDWVKLADDGSGDLIVRLYEAAGGDAKATLRLDDTFAGCTVEEVNLMEEPVLADDLPRALVAGGPVPAEGASVSFTPFQIVTLRIRR
In the case of B1, the “stoichiometry N” value in “cryo-EM structure” stood at 4.

B2: Bl_Man38C, GH38 α-mannosidase from Bifidobacterium longum NCC2705 (enzyme)
chain: MLLKVNREIDRCKRVMRERVWPHIHQVLAQCTVGAVKNPGEPEMPAAFITRAVSGQVIFQPLAVGEPWGTSWGTTWIRVEGQLPETLPEGRAIELVFNLGWLEWPVGGHIEAMAYRADGTVIKALHPRNHWMPLVSADGVKDRVVNPDGSFVVYVEGAYNPNVPSFTVTELGTKPTGKADERYEFSSIDIAALDQDMFDYWADLDVVTGSLENMNDADPRYWKLAKAMQRSINLWDEKDYNTLALARKALDKVMHNPANASAMTLTAMGHSHIDSAWLWPVRETERKVGRTVSNALALMDIDPDFTYVMSAAQHFAWLEERHPDLFERVKARIAEGRFIPVGGMWVESDGTMPCGESLIRQISYGKRYFKEKLGVVPNGIWLPDSFGYTGAWPQIAKRSGYSWFLTQKLCWNDTTRLPHHSFMWEGVDGSQIFTHFPPADKYDSDMSANDMAYVQSNYKDKDLSDRGILLFGYGDGGGGPIREMTMREHRFESFEGMPKVEYGTPDDFFSKAETEMKAEAGSEMPRWKGEFYFELHRKTLTSQQEMKRGCRKEESMLRTVEYLGVVASLESADYVYPTERIDRIWKTLLLSQFHDILPGSAIEWAHRVAREEYARDLKALSDIARDAIAAIAVANPDVARIAKARISQFADVDPWRPASLVSCGEPVEVNRREDGSATLDNGLLCVHVAADGTVDSMIDLKSGREMVAKDHVMGRYEILKDEPGVFDAWDVERDAFLCATALADGHIVSIETTADGSAVIVTKNSYRDDEISTTITLRPGKSQLDFHADVEWNVPEKLLKVDIPMALSASRAQYECQYGLIERPIVKNTEGEEAMFESCSHRFVRIHDSSYGIGVANGSTYGSDVSSLRDRDDALAGTMVRMSLVAAPTAPDPRTDIGHHEFDWTVLPCASVAPLVAAAGEINAPTIENMPDIAAPITLEPIEGTPVIDWIKLADDGSGDIVARLYEAAGAKAKAMLHVGGTLDGWTVRETNTLEQDESYPDEPAGLIGGKQQAEGAELALNPFQLTTLRLSRA
Turning to B2, the “stoichiometry N” value in “cryo-EM structure” stood at 4.

B3: Bl_Man38A, GH38 α-mannosidase from Bifidobacterium longum NCC2705 (enzyme)
chain: MFLKPEQQLERCRRIVRQRVDPHIHPSIAQLTVESYDIPGEPMPSDEFFAKLDRGDIDFKPFMLGSEWGTTWGTVWFRLTGTVPAGYPKGKPLELILDLGWYPHSCGGHIEGLVYRADGTAIKAVHPLNYWVPFMDAEGNAQVPVAEDGSFTLYLEAASNPLLLGVPPFIETELGDHATGKPDEPYVFKSADLAEFDERYENYSVDLDVVSSLMEFADKQSPRYWQLAKALQRSLNAYDERNPESVEAARAVLAGVLAKPANASAMNVSAIGHAHIDSAWLWPVRETRRKVARTVSNALALMDADPDFKYAMSSAQQYAWLEEDHPDIFKRMKRRIEEGRFIPVGGMWVEADGMLPAGESLIRQIAYGRKYFKEHLGVEPKGVWLPDSFGYTGAWPQIARRAGYEWFLTQKISWNDTTKFPHHSFMWEGIDGSRIFTHFPPADTYAAWCKVQELDYAEKNFQDKDLSDRSLLLFGFGDGGGGPTRNMMEHLHRYENLEGVSKVSIEEPNDFFDKAHQQLAENAGPEMPVWKGELYLELHRGTLTSQQDMKRGCRQEESLLRTVEYLGAAAVLSDPEYVYPREELDRIWKTLLLNQFHDILPGSAIAWVHREAREDYRRDLKRLAEIAQDMCAVLRKANPQADLLAEARISQFRNDGASWHANRINEPTDALSVLTQTLDNGRVLLANGVLSVTIEADGTISSLLDEEHGRELVPAGTRLGQYELLRDEPAVWDAWEIERESLLMANAVTGSIESVNTENGAAQVHVHTADGDTVITTTITLRPGSHTLDFHADIDWHERERFLKVDLPLGIVADQATYDCQYGLIRRPIVKNTASDEAKYESSTNRFAIIGDAGYAAAVINGSVYGSDASPIAGNAAEGRDSGTMFRLSLLSAPTFPDPRTDIGSHEFDWSVVADATVDRALDAAGVLNAPVLHDVPDITPLASIESVNGTVVLDWMKLADDGSGDLIVRAYEAAGGQADAMLHVCPALAGASVHETNVLEGDDLAADLPVALQDGRQNAEGATLHFGPFQLATLRITR
As to B3, the “stoichiometry N” value in “cryo-EM structure” was determined as 4.

The stoichiometry N is a count of units in the complex or per binding partner.
